Among the data in publication PMC4191399 are Kd values, retold here.

What all share (assay): fluorescence polarization
Holding throughout (details): internal 6-carboxyfluorescein in backbone between U12 and C13 (central tetraloop bases); 25 mM MOPS pH 7.4, 150 mM KCl, 2 mM DTT, 2 mM MgCl2, 0.01% Triton X-100, 1 nM RNA, room temperature, 1 h
Background: In fluorescence polarisation assays a small probe gives low polarisation when free and higher when bound to something large.

Series [1] has as its target T1, RIG-I Q784A/R791A Q784A;R791A (Homo sapiens) (UniProt O95786).
T1 sequence: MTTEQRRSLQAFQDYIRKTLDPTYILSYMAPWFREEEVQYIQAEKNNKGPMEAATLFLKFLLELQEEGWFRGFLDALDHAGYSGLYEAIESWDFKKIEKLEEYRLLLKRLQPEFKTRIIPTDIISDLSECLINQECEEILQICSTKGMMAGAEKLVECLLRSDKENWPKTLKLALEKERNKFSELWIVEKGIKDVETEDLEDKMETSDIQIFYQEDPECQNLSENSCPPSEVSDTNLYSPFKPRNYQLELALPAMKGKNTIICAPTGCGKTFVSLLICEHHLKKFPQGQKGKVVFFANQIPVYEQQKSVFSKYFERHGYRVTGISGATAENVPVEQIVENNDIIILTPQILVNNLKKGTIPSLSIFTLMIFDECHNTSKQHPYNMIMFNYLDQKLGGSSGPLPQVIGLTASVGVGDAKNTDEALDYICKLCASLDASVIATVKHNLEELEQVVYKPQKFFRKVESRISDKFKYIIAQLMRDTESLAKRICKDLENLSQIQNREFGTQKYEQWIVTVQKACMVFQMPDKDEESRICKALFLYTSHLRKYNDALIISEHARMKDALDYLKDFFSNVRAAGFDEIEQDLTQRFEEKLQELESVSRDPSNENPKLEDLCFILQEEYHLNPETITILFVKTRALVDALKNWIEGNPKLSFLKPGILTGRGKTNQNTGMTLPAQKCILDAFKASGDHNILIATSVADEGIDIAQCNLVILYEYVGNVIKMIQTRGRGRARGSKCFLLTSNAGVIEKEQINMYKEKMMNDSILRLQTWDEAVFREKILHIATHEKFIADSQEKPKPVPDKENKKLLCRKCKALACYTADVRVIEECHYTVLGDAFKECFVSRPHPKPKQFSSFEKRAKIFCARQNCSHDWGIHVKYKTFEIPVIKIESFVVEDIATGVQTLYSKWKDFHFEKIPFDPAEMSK

For series [2], the target named is T2, RIG-I Q784A/K788A Q784A;K788A (Homo sapiens) (UniProt O95786).
T2 sequence: T1 sequence with K788A, A791R

The target in the next series is T3, RIG-I WT (Homo sapiens) (UniProt O95786).
T3 sequence: T1 sequence with A784Q, A791R

Where a chain is given by its changes, count along the chain named.

One may read the Kd as the free concentration of one partner at which half of the binding sites on the other are occupied at equilibrium, for simple one-to-one binding. For GGACGUACGUUUCGACGUACGUCC [5'OH10L-F], the Kd in series [1] came to 91.4 nM; in series [2], 85.8 nM; with RIG-I WT (Homo sapiens) it was 25 nM.
